From the DeepSol protein solubility set

assay: soluble on expression in E. coli; label from the status in PepcDB or PDB records

Sequence | soluble on expression in E. coli
MGSDKIHHHHHHMPVTAIFSPDTPAMGIGWRHPHYAGLLQTGPALDFIEVHSENFFAPGGAARAVLRQGREHYPVSLHGTGLSLGSACGVDEWHLAQLAELVQEIDPVRVSDHASFARGHLPGTDAPVHAADLLPVPFTREALAVMCSNVQRVQERLKRPIAVENLSAYLDWRAADMRETEFLAALAQRTGCSLLVDVNNLYVNAQNAWLRGALNSAPGDADAALASCRDWIDQIAASPVAELHLAGHAHLGDIVIDDHGSRVCAEVWQLYRHALARLGPVPTLIEWDTDVPALSVLLDEVARARGIAQGRPATRQPSAEARP | not soluble
MAEDFSVVVLASDLGIDARPFLTRSDDVDEQENWHDCPQYLGDEDFSDLDLLQFFTLQGLDRSGNRIFRIVGKYFPARVVSAERLKKYISQKISNQCPEGPLCLVYMHSTVQKDDNSPGITILRWIYEDLPSDIKDRLQLVYFIHPGLRSRLVIATLGRLLLSGGLYWKIKYVSRLQYLWEDIKKGEVEIPDFVKNHDNVLEHRPLTDYGIEPDPFQLSEVQSSSFSLNRYENRWVS | soluble
MPGKLTATILTRNEAANIGDCIDSLAQLADEVIVLDSGSTDATRDIARARGANVIEDDGPWPGFGPQKNRALDRATGEWVLSIDADERVPPELAQEIRTAMARADADAYAIPRLSQFCGAWVHHSGWRPDHVIRLFRRGKARFSENLVHESLQVTGNVARLRTSLLHYSYTSMDQVHRKSAQYAEAGARDLTQRGKHIGALSPVLHGTWAFVRTLVLRRGFLDGGTGLAIARMNATVSYRKYRRARELASGANHRPLEHHHHHH | not soluble
MLRCCSALMCPTAVPSRVSPVAAAAAADIAGSSESTVSLVADVDKKNSQYKQIFLERFRKKLQSDKTGMNNLESFVELPEGVAPSAASIGPIKRGSEPLPPWIKLKVPKGMTHRPRFNRIRRSMREKNLSTVCEEAKCPNIGECWGGSDEEGTATATIMVMGSHCTRGCRFCSVLTSRRPPPLDPEEPEKVAAAVHEMGVDYIVMTMVDRDDLPDGGASHVCCCIHTIKKKNPELMLEALVGDFHGDLKLVEQLAVTPLSVYAHNIECVERITPRVRDRRASYRQSLQTLEHVTKWTNGNMLTKSSIMLGLGEEEAEVRQTLRDLRTAGVSAVTLGQYLQPSHTRLKVSRYAHPKEFEMWEKEAMDMGFLYCASGPMVRSSYRAGEYYIKNILKQRQSAEGGKAAAAATAVNAGTAIA | not soluble
MGSDKIHHHHHHMKEKVFRDPVHNYIPVEDELIYDLINSKEFQRLRRIKQLGSSSFTFHGAEHSRFSHCLGVYYLARRVTNIFDKKYSDIWNSNESLLTMTAALLHDIGHGAYSHTFERLFDTNHETITQQIILSPETEINTILRRVSPDFPDKVASVINHTYSNKQVEQLISSQIDVDRMDYLLRDSYFTGASYGEFDLTRVLRVIRPIENGIAFSRDGMHAVEDYIISRYQMYMQVYFHPASRAMEVLLQNLLKRAKYLYPKEKEFFTVTSPHLIPFFENRVTLEDYLSLDDGVMNTYFQTWMQSADKILSDLASRFINRKVFKSITFDEKDLSNLEKLRKIVKDLGFDPTYYTALHLNFDLPYDVYKPDVQNPRTQIEMLQEDGSIAELSTLSPLVHTLSGTTHGDRRFYFPKEMLIKDGLFVEAKEKFSHYIKNKHFYNLRE | not soluble
MVRVGILGASGYGGAELLRLLKAHPEVELVGFSSRKYEGRPLEAAWPQLWDGRLFAAQEEVLERAEVVFLALPNGLSMEIAPEALKAGKRVVDLSGDFRLPPEVYEAWYRIPHKSPDLYREAVYGLPELHREELKGARLVANPGCYVTAATLALAPLAAEGVLKGAFVVGLSGVSGAGREAEGTAFAEVNENLKPYKAGGTHRHIPEMERNLGRILAQGRRVRTHGEARAVRLSFTPHLVPMTRGILVTAEAEVEGAWSQESLEALYRDFYAGEPFVRVLKGLPETKATLGSNRVDVRPLYEERTGRVLVFAALDNLVKGMAGQAVQNLNLMLGLPEETALPKEGLWP | soluble
MGSDKIHHHHHHMSRRLPPLNAVKAFEAAARHLSFTRAAEELFVTQAAVSHQIKALEDFLGLKLFRRKNRSLLLTEEGQSYFLDIKDIFTQLSDATDRLLARSAIGSLTVSMSPSFAIQWLVPRLAKFSEKNPDIDVRIKAVDSEEGSLTDDVDVAIYYGQGSWPGLRADKLRNEVLIPVCSPMLLNGHKPLETPADLKHHTLLHDMSRHDWQAWFRQCGVTDVNVNQGPIFSHSSLVLQAAAHGQGVALGYSVLARPDIKAGRLVVPFQEVLVSKDAYYLVCQQNHAELGKIVAFREWMLDMFAEESRSELLPA | not soluble
MDNQKRPFTTRFDHYNYNVLNLERSLAFYDRAFGFREVKRKEAADGSFILVYLGDVYGHFLLELTWLRDRKEPYNLGENEVHLCVRTTGDYDAVREYHRAMGCICYENEQMGLYFVNDPDGYWIEVLPENRD | not soluble
MSLDENKPVLVLGATGKQGGSAARYLLERGWTVRAFVRDPGAPKAKELRELGASLHTGDLEDAGSVRAAMKGAYGVFSIQTPMTPAGVEGEERQGKICADAARDLGVQHYVHSSVGGAERPEGVNWRLSKLAIEQRIQENALRFTFLRPSYFMENLNHDMSPLVMEDGVLTFRRGLGPANTLQMISGPDIGYFAADAFDDPDTFGGAKIELAGDELTGEQIAAAFGRHTGLPARFVSVPIPELHRTGFEWQAISYTWLNGIGYHADIPTLRARFPQLLTLDQWLARTGWTPRDPAEGHHHHHH | soluble
MGSDKIHHHHHHSEEIFNGQVTDGEHSGAQLNIVPTVSSESTETRAGFDPKTDWAAGDALGLFMYKSSGWGDAYPRYDAQNNKSTRQANGWSQASPVYLLVDKATIWAYYPYNQAVTDGTKIPVPINVGTSVDYMWGKSTNQVSVIETDARIPMKHALSQFVVRLKVSPEYHNDGNLTSAKLKATGAKFATTGTMNLNDGGKITFQPTSTELTWSPNTTVPAQGQQAVDYAAAIYPMTLAAGEVSLEVVIDGATYTYAIPQITWEAGKRYIYSITMRSNDAEIGGENGQSVTIEGWTSTEEDITLVPVK | not soluble
MAGDPNSMTVSHHNASTARFYALRLLPGQEVFSQLHAFVQQNQLRAAWIAGCTGSLTDVALRYAGQEATTSLTGTFEVISLNGTLELTGEHLHLAVSDPYGVMLGGHMMPGCTVRTTLELVIGELPALTFSRQPCAISGYDELHISSRLEHHHHHH | soluble
MAAELVQLNPGQQVERWSIEKKLGEGGFGAVYRVFDATGKYAMKVEGANEQIQVLKLEVSVLNKLSKRGNRHFCKIEDKGRFGNFNYVVMTLVGKSLQDLNKAGVGGHMSMGCSIGIGIQSLEALEDLHNIGYLHRDVKPGNYTIGRPELNEIRKVYILDFGMCRKFTGNDGTIRKPRQAAGFRGTVKYAPISCHLQRELCRKDDLETWMYMQVELSHGTIPWQYISDMNQVGQAKQAIRNNLGSLFPPPCPHQFQDIMRMVDAMKYYDAPNYQAIYGMMRQAYGACGSNENAPYDWENGGPAAYLLH | not soluble
MSLVVFLLLKSQFLYGEDFKLRKGTLIIEEGIIKGFTDEHNEREVIEFKGLVIPSLINAHTHIADNSIKDIGINKTLDELVKPPNGLKHRYLTECSDDLLAEGMKLGLGDMREHGIKYFCDFRENGVRGISLLNKALKCYDYPKAIILGRPIKVDKDEIEEVLKVSNGLGLSGANEFKDDELKLIFKIFKKFKEKDDKKLFAIHAAEHRGAVEYSLNKYGMTEVERLIDLKIKPDFIVHGTHLTDNDLELLKENNIPVVACVRANLSFNVGMPKLNELNDNLLVGIGTDNFMANSPSIFKEMDFIYKLYHIEPKDILRMATINNAKILKLENVGLVDEGFKAVFTFIKPTNAILFSKNIIASVVTRCEKGDVVDFSLMENEEEGHHHHHH | soluble
MSLGYLNNVTGYREDLLANRAIVKHGNFALLTPDGLVKNIIPGFENCDATILSTPKLGASFVDYLVTLHQNGGNQQGFGGEGIETFLYVISGNITAKAEGKTFALSEGGYLYCPPGSLMTFVNAQAEDSQIFLYKRCYVPVEGYAPWLVSGNASELERIHYEGMDDVILLDFLPKELGFDMNMHILSFAPGASHGYIETHVQEHGAYILSGQGVYNLDNNWIPVKKGDYIFMGAYSLQAGYGVGRGEAFSYIYSKDCNRDVEIEGGSHHHHHH | soluble
MADYYGLFTSDTRSVSDGESDGERRLRRSRRKRGGGRFRPYSPDYSDDEKTKPTKKNQKRPDKQDRFGMAPPNSTQFLLEDREARADAEFENEQKFEAAERRRVRTMSGSYEHMRPAYWCTIEPATTTADFGSDDNNDLDSTSGESEADREMEREFETDYLEVKRERIQSMTRSQLAAELLERDQDTQVLTRELGSKETENRHLRSLLSAHGISPDEPVTSTTAIVVGQSKSPVVAN | not soluble
MAHHHHHHMGRNNKMRSKPSDNVAWYDKGPVEWLPRPVRLTYDQLDQLRDWMMRETIAGRTEEFNKIRHLHREWSQHPLMPVLGDVEPKFPLNLYKQNHRAKRRFLVRWHKANSPTYWMWMPRGPAVATPLHRSSPSQFPEHWKSLARTSSSSSSSGSSSAAP | soluble
MAHHHHHHMRRSALRGAARGNDNGAICRRYRDTSLCVVTSLTPSVHGGGSTSVVASSSSLSCPPRPSACYATAMHMSARHRLTNASILSNIKSMANEKDDLTSKLVYLRRRQEDAIAFAVKEKEMLAEKAKRQLAMEEEKLKVEARIEALISEAAQLGGPAAAQRMRDEIAKDKTRYVRSVDAFGDKTVRLQHTFAGLADNRIIHWWEYAYWNYIRYFFTQELLIAKDRFGNKFTVTWQFLKGREEQRRMYRKDSNKKHQPYGALATDERLWERWMRGHRGDPPSVAEEEHLRDYKKQFFGAMVLEDEEVEDALMRLMAHMNRASQTFQELDEDQVYGDAHRVAKPLRETERKPGEEMSARQKQKGATWTLGFARGDLFYNEEETQVMRTEMGHLFRNMEWQELEYKRQVRMNKQQPPHGKPPEGTTDPNTPDGDPMNHYWERTDLGIPYHDAVPDLTTPELERMRIESSQLEDERLAIRKELGLTDLGDIREGREPIKRDHAPFQPPPVSQRWKPKCWEESWGTGSGMKY | not soluble
MGSDKIHHHHHHMSDRKEDLERQINLTFAFLSANSYSRKFLTQVWIRDNVGDYKGLTDTAFRKKLQRDLAYLRRVGVPIEQFTVTSGIAEGQQAYRLAQDSYKLPEVEFTPDEAAVLGMAGEMGHNQELGAFARSGWTKLAAGGAQRDLSTSTALTNAGDLGSLSAKTLDAIIKARQLGKQISFEYRRAPKDAPSLRHMDPWGLVPERDRIYLVGFDLDRQEARTFRITRVRNINLGADATHPMPAGTNLQDMVRAQLRRKSVLIDATLRITPGRAVELRAAGVETSDGAWFLEDVDRDWLVRTAAAHAPEALVIEPKDVIDDVIALLRKVENEVV | not soluble
MAHHHHHHMIADDMGLGKTVQALAVAHHYRNEWPVLIVCPLSLVENWTKELMRFCSIPIGRIAIFQNSKVRVTDVHSAVIVPYSSLKSLDTQSTTFQVVILDESHYIKTVDSKRTVAALKLCRVARRVLLLSGTPTLSRPIELYPQLQTIMHPSWTPSKSLFAARYCNAFVGRFGVDYLGHSHMSELHVLLQQFVIRRTKRELGNELPSKIRQLLYVYITPKEKKALEKSVSALRNSFRDGATLPTLGDVASTTNMAQGTGGNLTTCTAGGVTATRNMTAFDLKIATARAKIAAVQDYVKSTTEQMVESGQKVIIFAHHQCMMEAIREAVESVQPKQPLDYIYITGETPAAQREALTTHFRTSTNCHVAVLSMHSCGVGHNLTCATMVVFAELDWNPSTHLQCEDRVHRMGQSSACVIKYLLAEGTSDSVIWPMLQTKLNVTHAVLEDSQAGGEGWSAGADTRRILRSDVPLTPSSPEKKQLTLEGFLSHSGSRPSRPLTQSSDSNAEVLKTSDESPRADTSPDTPFQSPSAVAPAENVLFDIAKLRQQREARKVFHSMPVLGTAGAGSSPVAAVTVTPPPPQIQRQVTLHEVLTNHPANSPTPKNSPQQRTNFHVAVAAKSFNERSGAAHTSSCSSETTVCAPIVSHPVKTLFLTRPASANSSSAASSVKPHAGASAADLSVFSTASKEGSICLAPSPRSEEIRRYNARRTPFILGSTLEKRLRPDDMEDQVS | not soluble
